Reference: patent US20090110693A1 (IMAXIO, published 2009)

Biological target: the molecule itself
Assay: self-association, SDS-PAGE with and without reducing agent

B1: AVD262 fusion protein (Plasmodium yoelii MSP1.19-chicken C4 bp oligomerisation domain) (other)
chain: MRSHIASIALNNLNKSGLVGEGESKKILAKMLNMDGMDLLGVDPKHVCVDTRDIPKNAGCFRDDNGTEEWRCLLGYKKGEGNTCVENNNPTCDINNGGCDPTASCQNAESTENSKKIICTCKEPTPNAYYEGVFCSSSGSKKQGDADVCGEVAYIQSVVSDCHVPTEDVKTLLEIRKLFLEIQKLKVELQGLSKEFLEHILH
notes: Runs as a disulphide-linked heptamer of about 140 kDa without reducing agent
Q: Does B1 bind?
A: binds

B2: AVD259 protein (chicken C4 bp oligomerisation domain with N-terminal leader) (other)
chain: MALKKHHENEISHHGSKKQGDADVCGEVAYIQSVVSDCHVPTEDVKTLLEIRKLFLEIQKLKVELQGLSKEFLEHILH
notes: Expressed in E. coli; On a non-reducing gel, monomer to heptamer bands are seen because disulphide formation is incomplete; the heptamer is the highest species; also called recombinant AVD259 protein
Q: Does B2 bind?
A: binds
